These results are taken from patent US20180155432A1 (INSTITUT NATIONAL DE LA RECHERCHE SCIENTIFIQUE, published 2018).

This assay concerns the target T1, recombinant human galectin-1 (human, UniProt P09382 2-135).
T1 construct: Used as the galectin selectivity control; also called hGal-1; Gal-1
Briefly: solid phase fluorescent binding assay; galectin coated at 10 µg/ml, streptavidin R-phycoerythrin detection. On the procedure:
Recombinant hGal-7 or hGal-1 (10 μg/mL) was coated overnight at 4° C. on black, flat bottom, 96-well polystyrene microplates (Ultident®, Montreal, QC, Canada). Thereafter, the plate was blocked with Reagent diluent (PBS-BSA 1%) for 1h, then incubated with unlabeled hGal-7₍₁₂₉₋₁₃₅₎ (cold) for 60 min and finally incubated with biotin-labeled [Ah⁰]hGal-7₍₁₂₉₋₁₃₅₎ for 2h. Lastly, Streptavidin R-phycoerythrin (1/500, Jackson Immunoresearch®, West Grove, Pa., USA) was applied to samples for 30 min. All incubations were performed at room temperature and the washes between incubations were done with 20 mM potassium phosphate buffer pH 7.1. The plate was read by a Tecan® Infinite M1000 PRO microplate reader at excitation and emission wavelengths of 488 nm and 670 nm, respectively.

T1 sequence (P09382 2-135 limits assumed): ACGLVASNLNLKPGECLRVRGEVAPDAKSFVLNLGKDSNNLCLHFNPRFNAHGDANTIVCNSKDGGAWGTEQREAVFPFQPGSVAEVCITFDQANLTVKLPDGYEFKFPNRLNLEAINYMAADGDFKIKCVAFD

B1: biotin-labeled [Ahx0]hGal-7(129-135) (peptide)
peptide: LDSVRIF
HELM: PEPTIDE1{[O=C1N[C@H]2[C@H](CS[C@H]2CCCCC(=O)[*:2])N1].[O=C(CCCCCN[*:1])[*:2]].L.D.S.V.R.I.F.[am]}$$$$V2.0
SMILES: CC[C@H](C)[C@H](NC(=O)[C@H](CCCNC(=N)N)NC(=O)[C@@H](NC(=O)[C@H](CO)NC(=O)[C@H](CC(=O)O)NC(=O)[C@H](CC(C)C)NC(=O)CCCCCNC(=O)CCCC[C@@H]1SC[C@@H]2NC(=O)N[C@@H]21)C(C)C)C(=O)N[C@@H](Cc1ccccc1)C(N)=O
Take B1: the binding result is listed as “no binding”.
